These results are taken from the supplement of paper PMC10567573.

B1: LOXL2 (parent)
chain: FSPDGPSRFRKAYKPEQPLVRLRG
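Also: lentivirally expressed fusions sorted by FACS into six bins by GFP to DsRed ratio, PSI derived from sequencing read proportions per bin multiplied by bin number.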

The variants in the series derive from B1. As to the kind of experiment: protein stability index of a GFP-peptide fusion (GPS, HEK-293T) (PSI 1-6); higher = more stable. To be noted: c terminus: a fixed tail appended.
As to FSYDGPSRFRKAYKPEQPLVRLRG [P3Y], the protein stability index was found to be 2.13.
Regarding FSWDGPSRFRKAYKPEQPLVRLRG [P3W], the protein stability index is 1.66.
FSCDGPSRFRKAYKPEQPLVRLRG [P3C]: the protein stability index came to 1.97.
FSADGPSRFRKAYKPEQPLVRLRG [P3A]: the protein stability index was determined as 1.79.
As for FSSDGPSRFRKAYKPEQPLVRLRG [P3S], the figure is 2.31; as for FSNDGPSRFRKAYKPEQPLVRLRG [P3N], 1.73.
As for FSRDGPSRFRKAYKPEQPLVRLRG [P3R], the figure is 2.12.
As for FSHDGPSRFRKAYKPEQPLVRLRG [P3H], the figure is 1.9; as for FSFDGPSRFRKAYKPEQPLVRLRG [P3F], 2.41; as for FSIDGPSRFRKAYKPEQPLVRLRG [P3I], 2.26.
Turning to FSEDGPSRFRKAYKPEQPLVRLRG [P3E], the protein stability index worked out at 1.97.
For FSKDGPSRFRKAYKPEQPLVRLRG [P3K], the protein stability index worked out at 1.71.
With FSVDGPSRFRKAYKPEQPLVRLRG [P3V] the figure was 2.6.
Consider FSMDGPSRFRKAYKPEQPLVRLRG [P3M], for which the protein stability index came out at 2.33.
For the variant FSDDGPSRFRKAYKPEQPLVRLRG [P3D], the protein stability index amounted to 2.
With FSTDGPSRFRKAYKPEQPLVRLRG [P3T] the figure was 2.21.
With FSLDGPSRFRKAYKPEQPLVRLRG [P3L] the figure was 1.96; with FSQDGPSRFRKAYKPEQPLVRLRG [P3Q], 2.17; with YSPDGPSRFRKAYKPEQPLVRLRG [F1Y], 1.83.
As for WSPDGPSRFRKAYKPEQPLVRLRG [F1W], the figure is 3.12; as for FSPDGPGRFRKAYKPEQPLVRLRG [S7G], 2.2.
With FSPDGPARFRKAYKPEQPLVRLRG [S7A], the protein stability index turned out to be 1.
Turning to FSPDGPERFRKAYKPEQPLVRLRG [S7E], the protein stability index was 2.01.
On to FSPDGPFRFRKAYKPEQPLVRLRG [S7F], for which the protein stability index came to 2.09.
Regarding FSPDGPCRFRKAYKPEQPLVRLRG [S7C], the protein stability index is 3.07.
Regarding FSPDGPHRFRKAYKPEQPLVRLRG [S7H], the protein stability index came out at 2.54.
As for FSPDGPKRFRKAYKPEQPLVRLRG [S7K], the protein stability index worked out at 1.94.
With FSPDGPIRFRKAYKPEQPLVRLRG [S7I], the protein stability index is 2.58.
With FSPDGPDRFRKAYKPEQPLVRLRG [S7D] the figure was 1.69.
In the case of FRPDGPSRFRKAYKPEQPLVRLRG [S2R], the protein stability index worked out at 2.96.
Turning to FPPDGPSRFRKAYKPEQPLVRLRG [S2P], the protein stability index was determined as 1.97.
FDPDGPSRFRKAYKPEQPLVRLRG [S2D]: the protein stability index turned out to be 3.05.
With FGPDGPSRFRKAYKPEQPLVRLRG [S2G] the figure was 2.11; with FTPDGPSRFRKAYKPEQPLVRLRG [S2T], 3.36.
As for FNPDGPSRFRKAYKPEQPLVRLRG [S2N], the protein stability index was 2.01.
As for FHPDGPSRFRKAYKPEQPLVRLRG [S2H], the protein stability index was 2.68.
With FKPDGPSRFRKAYKPEQPLVRLRG [S2K] the figure was 3.23; with FWPDGPSRFRKAYKPEQPLVRLRG [S2W], 1.84; with FMPDGPSRFRKAYKPEQPLVRLRG [S2M], 2.37.
On to FFPDGPSRFRKAYKPEQPLVRLRG [S2F], for which the protein stability index came to 2.48.
With FYPDGPSRFRKAYKPEQPLVRLRG [S2Y], the protein stability index amounted to 2.36.
With FVPDGPSRFRKAYKPEQPLVRLRG [S2V] the figure was 2.07.
Regarding FQPDGPSRFRKAYKPEQPLVRLRG [S2Q], the protein stability index turned out to be 1.22.
On to FEPDGPSRFRKAYKPEQPLVRLRG [S2E], for which the protein stability index worked out at 3.62.
Turning to FLPDGPSRFRKAYKPEQPLVRLRG [S2L], the protein stability index was found to be 1.92.
As for FSPDGQSRFRKAYKPEQPLVRLRG [P6Q], the figure is 2.16; as for FSPDGKSRFRKAYKPEQPLVRLRG [P6K], 1.98; as for FSPDGHSRFRKAYKPEQPLVRLRG [P6H], 3.98.
As for FSPDGNSRFRKAYKPEQPLVRLRG [P6N], the figure is 1.8; as for FSPDGLSRFRKAYKPEQPLVRLRG [P6L], 3.07; as for FSPDGMSRFRKAYKPEQPLVRLRG [P6M], 1.56.
As for FSPDGGSRFRKAYKPEQPLVRLRG [P6G], the figure is 1.54; as for FSPDGDSRFRKAYKPEQPLVRLRG [P6D], 1.63; as for FSPDGTSRFRKAYKPEQPLVRLRG [P6T], 1.88.
FSPDGISRFRKAYKPEQPLVRLRG [P6I]: the protein stability index was 2.52.
In the case of FSPDGASRFRKAYKPEQPLVRLRG [P6A], the protein stability index worked out at 2.22.
Regarding FSPDGYSRFRKAYKPEQPLVRLRG [P6Y], the protein stability index worked out at 2.16.
As to FSPDGESRFRKAYKPEQPLVRLRG [P6E], the protein stability index was 2.
As for FSPDPPSRFRKAYKPEQPLVRLRG [G5P], the figure is 2.21; as for FSPDRPSRFRKAYKPEQPLVRLRG [G5R], 1.74.
FSPDQPSRFRKAYKPEQPLVRLRG [G5Q]: the protein stability index was 2.33.
With FSPDNPSRFRKAYKPEQPLVRLRG [G5N] the figure was 2.66; with FSPDVPSRFRKAYKPEQPLVRLRG [G5V], 1.59; with FSPDSPSRFRKAYKPEQPLVRLRG [G5S], 2.38.
As for FSPDIPSRFRKAYKPEQPLVRLRG [G5I], the figure is 2.51.
Regarding FSPDLPSRFRKAYKPEQPLVRLRG [G5L], the protein stability index came out at 2.02.
As for FSPDHPSRFRKAYKPEQPLVRLRG [G5H], the figure is 2.65.
As for FSPDCPSRFRKAYKPEQPLVRLRG [G5C], the protein stability index came to 2.03.
With FSPDFPSRFRKAYKPEQPLVRLRG [G5F] the figure was 2.33; with FSPDDPSRFRKAYKPEQPLVRLRG [G5D], 1.62.
On to FSPDAPSRFRKAYKPEQPLVRLRG [G5A], for which the protein stability index stood at 1.47.
FSPDMPSRFRKAYKPEQPLVRLRG [G5M]: the protein stability index turned out to be 1.69.
As for FSPDTPSRFRKAYKPEQPLVRLRG [G5T], the protein stability index was 1.92.
As to FSPDYPSRFRKAYKPEQPLVRLRG [G5Y], the protein stability index is 1.83.
As for FSPDEPSRFRKAYKPEQPLVRLRG [G5E], the figure is 2.35.
With FSPDKPSRFRKAYKPEQPLVRLRG [G5K], the protein stability index is 2.17.
As for FSPIGPSRFRKAYKPEQPLVRLRG [D4I], the figure is 1.71; as for FSPPGPSRFRKAYKPEQPLVRLRG [D4P], 1.07.
With FSPWGPSRFRKAYKPEQPLVRLRG [D4W] the figure was 2.58; with FSPYGPSRFRKAYKPEQPLVRLRG [D4Y], 2.82; with FSPMGPSRFRKAYKPEQPLVRLRG [D4M], 1.71.
With FSPCGPSRFRKAYKPEQPLVRLRG [D4C] the figure was 2.21; with FSPKGPSRFRKAYKPEQPLVRLRG [D4K], 1.97.
Take FSPSGPSRFRKAYKPEQPLVRLRG [D4S]: the protein stability index was 1.52.
On to FSPLGPSRFRKAYKPEQPLVRLRG [D4L], for which the protein stability index is 1.78.
As for FSPEGPSRFRKAYKPEQPLVRLRG [D4E], the figure is 2.44.
As for FSPFGPSRFRKAYKPEQPLVRLRG [D4F], the figure is 1.66; as for FSPVGPSRFRKAYKPEQPLVRLRG [D4V], 2.38.
For the variant FSPAGPSRFRKAYKPEQPLVRLRG [D4A], the protein stability index was determined as 1.62.
As for FSPQGPSRFRKAYKPEQPLVRLRG [D4Q], the figure is 2.57.
With FSPGGPSRFRKAYKPEQPLVRLRG [D4G] the figure was 1.98; with FSPHGPSRFRKAYKPEQPLVRLRG [D4H], 1.41; with FSPNGPSRFRKAYKPEQPLVRLRG [D4N], 1.73.
On to FSPTGPSRFRKAYKPEQPLVRLRG [D4T], for which the protein stability index was 2.01.
